Data: article PMC3813734, “Biochemical Characterization of a First Fungal Esterase from Rhizomucor miehei Showing High Efficiency of Ester Synthesis” (PLoS ONE, 2013)

Key:
Test in all cases: purified protein
Type in all cases: biochemical, Rhizomucor miehei
Details in all cases: 50 mM sodium phosphate pH 6.5, 45 °C, 5 min
purified protein [1] = substrate: CCCCCCCC(=O)Oc1ccc([N+](=O)[O-])cc1
purified protein [2] = substrate: CCCCCCCCCC(=O)Oc1ccc([N+](=O)[O-])cc1
purified protein [3] = substrate: CCCCCC(=O)Oc1ccc([N+](=O)[O-])cc1
purified protein [4] = substrate: CC(=O)Oc1ccc([N+](=O)[O-])cc1
purified protein [5] = substrate: CCCCCCCCCCCC(=O)Oc1ccc([N+](=O)[O-])cc1
purified protein [6] = substrate: CCCC(=O)Oc1ccc([N+](=O)[O-])cc1

B1: RmEstA (Rhizomucor miehei) (protein)
chain: MTVGNPPIHPVYAAAFAAMKERPPIHTLDLKVVRESSEARQLAANIKLPEVIEEDKVVESDGKTLKLTIVRPPGTEDQILPVLIFLHGGGFVFGSKYTHIKPVRDLTVKANVVTVFVDYSLSPEAKFPTAIEEIYAAILWVRENASSLNINAEALAVAGDSAGATLSAAVSIYAKEKGLSAAIKTQVLIYPATAVSHAKYESYKLFGNGDYILSAEDLKFFSNAYLPAPASELNDKLATLELATKADLEGLPPALLFTAESDVLRDEGEKYAQQLAEAGVDVAAVRVLGAVHGFITVPVETPQYRFTINTIVAHLRDIYAKYNA
notes: full-length ORF, 324 residues, no signal peptide predicted; C-terminal His tag (pET-30a(+), NdeI/XhoI); E. coli BL21(DE3); Ni-IDA; 34,989 Da calculated, 34 kDa SDS-PAGE
Purified protein [1]
  Km: 0.82 mM
  kcat/Km: 510 M⁻¹ s⁻¹
Purified protein [2]
  Km: 0.28 mM
  kcat/Km: 130 M⁻¹ s⁻¹
Purified protein [3]
  Km: 0.12 mM
  kcat/Km: 8970 M⁻¹ s⁻¹
Purified protein [4]
  Km: 1 mM
  kcat/Km: 370 M⁻¹ s⁻¹
Purified protein [5]
  Km: 0.3 mM
  kcat/Km: 60 M⁻¹ s⁻¹
Purified protein [6]
  Km: 0.17 mM
  kcat/Km: 6900 M⁻¹ s⁻¹
